Test results reported in patent US10005846B2, “Anti-transglutaminase 2 antibodies” (MEDICAL RESEARCH COUNCIL TECHNOLOGY, priority 2012, dated 2018).

T1: human TG2 (Homo sapiens, UniProt P21980)
T1 sequence (P21980 1-687): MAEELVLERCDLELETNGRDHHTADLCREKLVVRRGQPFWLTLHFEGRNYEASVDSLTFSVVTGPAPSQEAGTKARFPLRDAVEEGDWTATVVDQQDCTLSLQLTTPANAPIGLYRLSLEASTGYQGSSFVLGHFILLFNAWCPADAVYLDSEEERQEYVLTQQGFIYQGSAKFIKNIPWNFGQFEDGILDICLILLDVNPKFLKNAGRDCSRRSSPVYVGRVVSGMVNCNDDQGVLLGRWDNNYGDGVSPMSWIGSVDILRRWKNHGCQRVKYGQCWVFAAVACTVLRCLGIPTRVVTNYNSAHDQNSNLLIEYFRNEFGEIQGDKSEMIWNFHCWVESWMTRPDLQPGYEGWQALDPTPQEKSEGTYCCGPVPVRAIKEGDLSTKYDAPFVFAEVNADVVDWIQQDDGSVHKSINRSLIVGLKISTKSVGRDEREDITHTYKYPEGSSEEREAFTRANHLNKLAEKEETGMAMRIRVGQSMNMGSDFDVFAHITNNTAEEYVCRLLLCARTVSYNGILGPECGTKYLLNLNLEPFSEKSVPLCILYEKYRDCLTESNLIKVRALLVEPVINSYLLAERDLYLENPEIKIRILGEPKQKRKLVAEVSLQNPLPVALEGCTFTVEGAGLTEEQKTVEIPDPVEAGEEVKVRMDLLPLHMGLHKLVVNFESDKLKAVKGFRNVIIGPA


What was measured:
WI-38 cells = experiment: Scratch wound assay in WI-38 cells; assay type: cell-based, human; settings: serum free media; Cytochalasin D 0.1 μM, R281 100 μM, Z DON 10 μM and 100 μM, Cub7402 5 μg/ml
Method: WI-38 cells (normal human lung fibroblasts ATCC cat#CCL-75) were plated in a 96 well Image Lock plate (Essen cat#4379) at 2×10^4/well in αMEM media (Life Technologies cat#32561) with 10% FBS and grown O/N to >97% confluence. Cells were washed 2× with αMEM media without serum and a scratch wound was generated using an Essen Wound Maker and the manufacturers protocol. The media was removed and replaced with 95 μl/well serum free media. Controls and test antibodies were added to the wells. The plate was placed in an Essen Incucyte and the closure of the wound was analysed using the scratch wound protocol.
Cytochalasin D was used as an assay control at 0.1 μM. R281, a small molecule non-specific transglutaminase inhibitor, was tested at 100 μM. Z DON, a peptide non reversible transglutaminase inhibitor was tested at 10 μM and 100 μM. The commercially available TG2 antibody Cub7402 (ABcam cat#ab2386) was tested at 5 μg/ml. Antibodies of the invention were tested on at least three occasions at various concentrations as indicated. In all experiments controls were Cytochalasin D at 0.1 uM and ZDON at two concentrations to show a dose dependant effect.

Cynomolgus TG2 = experiment: Biacore (SPR) affinity, cynomolgus TG2; assay type: binding, cynomolgus monkey; settings: +Ca^2+ (1 mM CaCl2 running buffer; includes rows without a Ca mark)
Method: (§1) Recombinant human TG2 was obtained from Zedira GmbH (cat. no.: T002). Recombinant cynomolgus monkey TG2 was obtained from Trenzyme. Surface plasmon resonance (SPR) was measured on a Biacore T200 instrument (GE Healthcare). CM5 chips (GE Healthcare cat. no.: BR-1006-68) were coated with monoclonal mouse anti-human IgG1 (Fc) (MAH) antibody (GE Healthcare cat. no.: BR-1008-39) by amine-coupling as described in the manufacturers instructions. HBS-EP+ buffer (0.01 M HEPES, 0.15 M NaCl, 3 mM EDTA, 0.05% v/v Surfactant P20) and HBS-P+ buffer (0.01 M HEPES, 0.15 M NaCl, 0.05% Surfactant P20) were purchased from GE Healthcare as 10× stocks (cat. nos.: BR-1006-69 and BR-1006-71). Calcium Chloride solution was obtained from Sigma Aldrich (cat. no.:21115).
(§2) The method employed to determine the affinity of the anti-TG2 antibodies involved the capture of the chimeric or humanised antibodies on a MAH coated CM5 chip, followed by the injection of a series of TG2 samples in running buffer. The running buffer was 1×HBS-P+ containing 1 mM CaCl2, or 1×HBS-EP+ for calcium-free experiments. Antibody capture was carried out for a contact time of 120 seconds at a flow rate of 10 μl/min resulting in the capture of approximately 40-80 RU. TG2 was injected over the immobilised antibody at concentrations ranging from 25 nM to 400 nM with a contact time up to 600 seconds at a flow rate of 30 μl/min. Dissociation of TG2 was typically measured for up to 5400 seconds (1.5 hours). Regeneration of the chip was then performed using 3 M MgCl2, for a contact time of 60 seconds at a flow rate of […], followed by a 300 s stabilisation period before the next sample. For each of human and cynomolgus monkey TG2, at least 5 injections at a variety of concentrations were performed in at least two separate experiments.
(§3) Kinetic data were exported from the Biacore T200 Evaluation Software and analysed using GraphPad Prism, where the association phases and dissociation phases were analysed separately using a one phase association model and one-phase exponential decay model respectively. Association rates (kon) were calculated for each curve individually, and dissociation rates (koff) values from the long dissociation phase data collected. Where koff values were calculated to be <1×10^−5 s^−1, values were set at 1×10^−5 for analysis, as rates slower than this could not be estimated accurately. Values for kon and koff are presented in the tables below as the mean of the individual calculated values for each antibody for each TG2 species from multiple concentrations +/−1 standard deviation. KD values are calculated as mean koff/mean kon.

human TG2 [1] = biological target: T1, human TG2; experiment: Fluorescence-based transglutaminase assay (dansylated lysine into N,N-dimethylated casein), human TG2; assay type: biochemical; design: purchased Zedira GmbH T002; settings: 1 nM human TG2
Method: Transglutaminase activities of purified human (Zedira) or cynomogolus monkey TG2 enzymes (Trenzyme) were measured by incorporation of dansylated lysine K×D (Zedira) into N,N-dimethylated casein (DMC, Sigma). Human or cynomogolus monkey TG2 were diluted in transamidation buffer (25 mM HEPES pH 7.4 containing 250 mM NaCl, 2 mM MgCl2, 5 mM CaCl2, 0.2 mM DTT and 0.05% v/v Pluronic F-127) to 1 nM and 10 nM respectively and mixed with various concentrations of protein-A purified murine, chimeric or humanised TG2 antibodies for 180 min at room temperature in 384-well black microtiter plates (Corning). Reactions were initiated by addition of DMC and K×D to a final concentration of 10 uM and 20 uM respectively and a final reaction volume of 30 ul, and allowed to proceed at RT for 180 min and the increase in fluorescence (RFU) (excitation at 280 nm, emission 550 nm) monitored using a Tecan Safire^2 plate reader. Data were normalised to percentage activity where % activity=(RFU test antibody−RFU low controls)/RFU high controls−RFU low controls)×100, where low controls contained all components except enzyme and high controls contained all components except antibody.
Antibody dose response curves were plotted using GraphPad prism software and fitted using a 4-parameter logistical model to return IC50 and other statistical parameters. The results are illustrated in FIGS. 29 to 33.

human TG2 [2] = biological target: T1, human TG2; experiment: Biacore (SPR) affinity, human TG2; assay type: binding; design: purchased Zedira GmbH T002; settings: +Ca^2+ (1 mM CaCl2 running buffer; includes rows without a Ca mark)
Method: as §1, §2, §3

human TG2 [3] = biological target: T1, human TG2; experiment: ELISA assay for TG2 binding, human TG2; design: purchased Zedira GmbH T002
Method: Antibody binding to human and cynomolgus monkey TG2 was determined in an ELISA assay. Clear polystyrene “Maxisorp” 96-well plates (Nunc) were coated with 50 ng purified human or cynomogulus monkey TG2 in 50 μl 0.05 M carbonate-bicarbonate buffer pH 9.6 at 4° C. overnight. Control wells were coated with 50 μl 100 μg/ml bovine serum albumin (BSA). Plates were washed 3× with 300 μl phosphate-buffered saline pH7.4 (PBS) containing 0.1% Tween 20 (PBST) and blocked with 300 μl 3% w/v Marvel skimmed milk in PBS for 1 hour at room temperature. After 3× wash with PBST, 50 μl protein-A purified chimeric or humanised anti-TG2 antibodies or human IgG1 kappa isotope control antibody or CUB7402 (Abcam) were serially diluted 4-fold from a top concentration of 50 nM in PBS, and added to the plate in duplicate. […] After 3× washes with PBST, the plates were developed with 50 μl TMB substrate (Sigma) for 5 min at room temperature before stopping the reaction with 25 μl 0.5M H2SO4 and reading absorbance at 450 nm in a microtiter plate reader (BioTek EL808). Dose response curves were analysed and EC50 values and other statistical parameters determined using a 4-parameter logistical fit of the data (GraphPad Prism).

Molecule | koff (human TG2 [2]) | kon (human TG2 [2]) [M⁻¹ s⁻¹] | ELISA binding to human TG2 (in words) (human TG2 [3]) | effect on wound closure (WI-38 cells) | koff (Cynomolgus TG2) | kon (Cynomolgus TG2) [M⁻¹ s⁻¹] | inhibition of human TG2 transamidation (in words) (human TG2 [1])
cDC001: chimeric DC1 antibody: murine variable regions, human IgG1 and human kappa (antibody, V domains shown) VH: EVQLVESGGGLVKPGGSLKLSCAASGFTLSTHAMSWVRQTPEKRLEWVATISSGGRSTYYPDSVKGRFTISRDNVKNTLYLQLSSLRSEDTAVYFCARLISTYWGQGTTLTVSS VL: DITMTQSPSSIYASLGERVTITCKASQDINSYLTWFQQKPGKSPKILIYLVNRLVDGVPSRFSGSGSGQDYALTISSLEYEDMGIYYCLQYDDFPYTFGGGTKLEIK | <10^−5 s^−1 | 320000 |  | inhibited wound closure | <10^−5 s^−1 | 420000 | potent inhibition of TG2 activity in the low nanomolar range
hBB001BB: humanised BB7 antibody (heavy chain hBB001HB, light chain hBB001KB by name) (antibody, V domains shown) VH: EVQLLESGGGLVQPGGSLRLSCAASGIIFSSSAMSWVRQAPGKGLEWVATISSGGRSTYYPDSVKGRFTVSRDSSKNTLYLQMNSLRAEDTAVYYCAKLISPYWGQGTLVTVSS VL: DIKMTQSPSSLSASVGDRVTITCKASQDINSYLTWFQQKPGKAPKTLIYLTNRLMDGVPSRFSGSGSGQEFLLTISSLQPEDFATYYCLQYVDFPYTFGQGTKVEIK | <10^−5 s^−1 | 240000 | comparable EC50 values |  | 3.7e-05 s⁻¹ | 270000 | potent inhibition of TG2 activity in the low nanomolar range

Further lines, with some results ahead:

koff (human TG2 [2]) | kon (human TG2 [2]) [M⁻¹ s⁻¹] | ELISA binding to human TG2 (in words) (human TG2 [3]) | Molecule | effect on wound closure (WI-38 cells) | koff (Cynomolgus TG2) | kon (Cynomolgus TG2) [M⁻¹ s⁻¹] | inhibition of human TG2 transamidation (in words) (human TG2 [1])
2.4e-05 s⁻¹ | 200000 | comparable EC50 values | hAB004: humanised AB1 antibody; heavy chain version RHA with light chain version RKE (antibody, V domains shown) VH: EVQLLESGGGLVQPGGSLRLSCAASGFTFSSSAMSWVRQAPGKGLEWVSTISVGGGKTYYPDSVKGRFTISRDNSKNTLYLQMNSLRAEDTAVYYCAKLISLYWGQGTLVTVSS VL: EIVLTQSPSSLSASVGDRVTITCKASQDINSYLTWYQQKPGKAPKLLIYRTNRLFDGVPSRFSGSGSGTDFFFTISSLQPEDFGTYYCLQYDDFPYTFGGGTKLEIK |  | 1.8e-05 s⁻¹ | 160000 | potent inhibition of TG2 activity in the low nanomolar range
<10^−5 s^−1 | 190000 |  | hAB005: humanised AB1 antibody; heavy chain version RHA with light chain version RKJ (antibody, V domains shown) VH: EVQLLESGGGLVQPGGSLRLSCAASGFTFSSSAMSWVRQAPGKGLEWVSTISVGGGKTYYPDSVKGRFTISRDNSKNTLYLQMNSLRAEDTAVYYCAKLISLYWGQGTLVTVSS VL: DIQMTQSPSSLSASVGDRVTITCKASQDINSYLTWFQQKPGKAPKSLIYRTNRLFDGVPSRFSGSGSGTDFFLTISSLQPEDFATYYCLQYDDFPYTFGQGTKVEIK | inhibited wound closure | 3.4e-05 s⁻¹ | 140000 | potent inhibition of TG2 activity in the low nanomolar range
